Common to all, as to test: two-hybrid library CCNG1;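 also: natural log of median RNA to DNA barcode read ratio; higher means stronger binding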
For one test, the target named is T1, 4H855-bN.
T1 chain: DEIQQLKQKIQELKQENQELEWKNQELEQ

For the next test, the target named is T2, P12bH1.
T2 chain: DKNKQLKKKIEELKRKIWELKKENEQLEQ

A further test addresses T3, 4H953-bN.
T3 chain: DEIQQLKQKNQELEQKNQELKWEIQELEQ

The next test deals with T4, 4H797-bN.
T4 chain: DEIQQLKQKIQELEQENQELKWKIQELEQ

A further test deals with T5, 4H968-bN.
T5 chain: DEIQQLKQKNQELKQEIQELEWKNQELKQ

The target of another test is T6, 4H883-bN.
T6 chain: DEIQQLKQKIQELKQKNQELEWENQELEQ

The next test concerns the target T7, 4H967-bN.
T7 chain: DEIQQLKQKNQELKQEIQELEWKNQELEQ

For the next test, the target named is T8, 4H908-bN.
T8 chain: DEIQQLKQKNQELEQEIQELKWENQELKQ

A further test addresses T9, 4H918-bN.
T9 chain: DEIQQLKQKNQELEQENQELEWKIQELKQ

In a further test the target is T10, P6bH1.
T10 chain: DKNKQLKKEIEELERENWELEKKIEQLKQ

In another test the target is T11, 4H3172-bA.
T11 chain: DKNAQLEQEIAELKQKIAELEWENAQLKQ

The target in the next test is T12, 4H3817-bA.
T12 chain: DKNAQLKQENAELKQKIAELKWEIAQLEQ

For another test, the target named is T13, P11A.
T13 chain: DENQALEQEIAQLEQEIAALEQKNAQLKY

In a further test the target is T14, 4H3638-bA.
T14 chain: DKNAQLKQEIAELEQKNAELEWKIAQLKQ

In another test the target is T15, 4H3129-bA.
T15 chain: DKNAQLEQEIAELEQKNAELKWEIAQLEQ

The next test has as its target T16, 4H850-bA.
T16 chain: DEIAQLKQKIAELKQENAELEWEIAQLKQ

In a further test the target is T17, 4H619-bA.
T17 chain: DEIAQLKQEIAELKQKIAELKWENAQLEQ

The target of another test is T18, 4H3414-bA.
T18 chain: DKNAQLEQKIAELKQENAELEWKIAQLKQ

For a further test, the target named is T19, 4H584-bA.
T19 chain: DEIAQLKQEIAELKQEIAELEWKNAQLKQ

The target of the next test is T20, 4H3974-bA.
T20 chain: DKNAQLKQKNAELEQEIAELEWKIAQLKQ

The target in another test is T21, 4H906-bA.
T21 chain: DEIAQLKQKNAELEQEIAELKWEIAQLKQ

For another test, the target named is T22, 4H3631-bA.
T22 chain: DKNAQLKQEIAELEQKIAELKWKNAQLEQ

In the next test the target is T23, 4H570-bA.
T23 chain: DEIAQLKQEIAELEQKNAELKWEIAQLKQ

For DEIQQLKQKIQELEQENQELKWKIQELEQ [4H797-bN], the interaction score with 4H855-bN is 0.668; with P12bH1 it was -0.66; with 4H953-bN it was -0.455; with 4H797-bN, 0.569; with 4H968-bN, -1.06; with 4H883-bN, -1.53. Also, the interaction score in the test with 4H967-bN was -0.535; in the test with 4H908-bN, -0.753; with 4H918-bN, 1.02; with P6bH1, 0.0343.
DKNAQLEQEIAELEQKNAELKWEIAQLEQ [4H3129-bA]: the interaction score with 4H3172-bA was -1.38; with 4H3817-bA, -0.661; with P11A, 0.0953; with 4H3638-bA, 0; in the test with 4H3129-bA it was -0.78; with 4H850-bA, 0.0228. In addition, the interaction score with 4H619-bA is -1.59; in the test with 4H3414-bA, 2.61; in the test with 4H584-bA, -1.75; with 4H3974-bA, -0.932; with 4H906-bA, -0.839; with 4H3631-bA it was -0.762. Also, the interaction score with 4H570-bA was -1.13.

The values are drawn from PMC10397247.
